In US20240182536A1 (MURAL ONCOLOGY, published 2024):

T1: IL-18 receptors on HEK-Blue IL-18 reporter cells (UniProt Q13478 19-541; O95256 20-599, limits assumed)
T1 sequence (looked up) 1: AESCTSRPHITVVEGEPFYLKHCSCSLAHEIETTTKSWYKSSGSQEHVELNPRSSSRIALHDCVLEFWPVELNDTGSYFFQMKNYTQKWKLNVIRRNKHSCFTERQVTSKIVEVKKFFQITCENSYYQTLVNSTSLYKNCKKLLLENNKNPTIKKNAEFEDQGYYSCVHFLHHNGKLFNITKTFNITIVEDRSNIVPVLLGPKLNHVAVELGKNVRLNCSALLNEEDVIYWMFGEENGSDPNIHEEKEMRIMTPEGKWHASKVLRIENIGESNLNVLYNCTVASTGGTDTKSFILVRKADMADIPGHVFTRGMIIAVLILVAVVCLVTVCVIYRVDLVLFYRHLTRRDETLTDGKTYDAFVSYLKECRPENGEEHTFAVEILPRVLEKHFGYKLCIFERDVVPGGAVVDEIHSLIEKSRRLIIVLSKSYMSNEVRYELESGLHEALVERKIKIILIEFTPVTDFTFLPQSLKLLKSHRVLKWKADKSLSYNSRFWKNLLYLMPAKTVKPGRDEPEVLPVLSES
T1 sequence (looked up) 2: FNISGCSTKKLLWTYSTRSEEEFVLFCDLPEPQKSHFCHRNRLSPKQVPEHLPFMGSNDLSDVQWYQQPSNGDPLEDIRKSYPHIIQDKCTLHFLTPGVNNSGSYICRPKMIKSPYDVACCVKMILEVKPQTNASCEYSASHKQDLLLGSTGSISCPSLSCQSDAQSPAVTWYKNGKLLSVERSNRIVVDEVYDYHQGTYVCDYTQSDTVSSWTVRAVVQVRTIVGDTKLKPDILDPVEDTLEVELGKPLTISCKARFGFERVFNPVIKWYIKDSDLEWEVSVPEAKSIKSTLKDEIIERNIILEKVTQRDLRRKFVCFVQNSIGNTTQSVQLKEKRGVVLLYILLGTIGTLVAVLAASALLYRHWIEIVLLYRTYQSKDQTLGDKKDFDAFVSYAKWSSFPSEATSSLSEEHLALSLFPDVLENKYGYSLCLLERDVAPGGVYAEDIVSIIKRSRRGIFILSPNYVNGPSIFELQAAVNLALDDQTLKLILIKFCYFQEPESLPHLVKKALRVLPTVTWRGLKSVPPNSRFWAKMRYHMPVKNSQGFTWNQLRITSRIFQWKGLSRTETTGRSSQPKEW

T2: IL-18 binding protein (IL-18BP) (UniProt O95998 31-194)
T2 sequence (looked up): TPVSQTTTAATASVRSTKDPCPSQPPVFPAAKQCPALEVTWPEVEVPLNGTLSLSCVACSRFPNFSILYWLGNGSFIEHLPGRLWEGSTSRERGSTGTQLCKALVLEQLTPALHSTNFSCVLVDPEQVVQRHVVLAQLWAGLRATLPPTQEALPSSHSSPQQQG


Columns and labels:
[1] = biological target: T1, IL-18 receptors on HEK-Blue IL-18 …; test: cell-based or functional assay
[2] = biological target: T2, IL-18 binding protein (IL-18BP); test: cell-based or functional assay

| Binder | Activity, No BP, DF-100000 [1] | Activity, No BP, DF-500000 [1] | Activity, No BP, DF-2500000 [1] | Activity, +100 nM BP, DF-1000002 [2] | Activity, +100 nM BP, DF-5000003 [2] | Activity, +100 nM BP, DF-25000004 [2] | Ratio (-BP/+BP), DF-1000005 [2] | Ratio (-BP/+BP), DF-5000006 [2] | Ratio (-BP/+BP), DF-25000007 [2] |
| --- | --- | --- | --- | --- | --- | --- | --- | --- | --- |
| IL-18 variant G3P, E6S, K53R, D54Y, S55P, T63I, N91K (ligand) YFPKLSSKLSVIRNLNDQVLFIDQGNRPLFEDMTDSDMRDNAPRTIFIISMYRYPQPRGMAVIISVKSEKISTLSSENKIISFKEMNPPDKIKDTKSDIIFFQRSVPGHDNKMQFESSSYEGYFLASEKERDLFKLILKKEDELGDRSIMFTVQNED | 0.15 | 0.08 | 0.07 | 0.14 | 0.08 | 0.07 | 1.07 | 0.97 | 0.99 |
| IL-18 variant G3S, E6H, K53Y, D54P, S55Y, T63S, N91A, R104S (ligand) YFSKLHSKLSVIRNLNDQVLFIDQGNRPLFEDMTDSDMRDNAPRTIFIISMYYPYQPRGMAVSISVKSEKISTLSSENKIISFKEMNPPDAIKDTKSDIIFFQSSVPGHDNKMQFESSSYEGYFLASEKERDLFKLILKKEDELGDRSIMFTVQNED | 0.09 | 0.09 | 0.07 | 0.07 | 0.08 | 0.08 | 1.18 | 1.1 | 0.95 |
| IL-18 variant G3Q, E6N, K53T, D54A, N91K, R104P (ligand) YFQKLNSKLSVIRNLNDQVLFIDQGNRPLFEDMTDSDMRDNAPRTIFIISMYTASQPRGMAVTISVKSEKISTLSSENKIISFKEMNPPDKIKDTKSDIIFFQPSVPGHDNKMQFESSSYEGYFLASEKERDLFKLILKKEDELGDRSIMFTVQNED | 0.07 | 0.08 | 0.07 | 0.07 | 0.09 | 0.08 | 1.03 | 0.89 | 0.95 |
| IL-18 variant G3P, E6D, K53T, D54N, T63A, N91T, R104P (ligand) YFPKLDSKLSVIRNLNDQVLFIDQGNRPLFEDMTDSDMRDNAPRTIFIISMYTNSQPRGMAVAISVKSEKISTLSSENKIISFKEMNPPDTIKDTKSDIIFFQPSVPGHDNKMQFESSSYEGYFLASEKERDLFKLILKKEDELGDRSIMFTVQNED | 0.07 | 0.07 | 0.07 | 0.07 | 0.08 | 0.07 | 0.95 | 0.92 | 1.01 |
| IL-18 variant E6T, D54P, S55K, R104S (ligand) YFGKLTSKLSVIRNLNDQVLFIDQGNRPLFEDMTDSDMRDNAPRTIFIISMYKPKQPRGMAVTISVKSEKISTLSSENKIISFKEMNPPDNIKDTKSDIIFFQSSVPGHDNKMQFESSSYEGYFLASEKERDLFKLILKKEDELGDRSIMFTVQNED | 0.17 | 0.09 | 0.1 | 0.18 | 0.09 | 0.08 | 0.98 | 0.99 | 1.3 |
| IL-18 variant G3P, E6R, K53T, D54Y, S55I, T63V, N91G, R104K (ligand) YFPKLRSKLSVIRNLNDQVLFIDQGNRPLFEDMTDSDMRDNAPRTIFIISMYTYIQPRGMAVVISVKSEKISTLSSENKIISFKEMNPPDGIKDTKSDIIFFQKSVPGHDNKMQFESSSYEGYFLASEKERDLFKLILKKEDELGDRSIMFTVQNED | 0.14 | 0.08 | 0.07 | 0.15 | 0.08 | 0.07 | 0.93 | 0.96 | 0.99 |
